# Reference: a protein production outcome set (Wang et al. 2014)
# Assay: label from the status in PepcDB records
row,Sequence,protein production
1,MTEPNNPHRPDEAGVSGWPSEAGRDPYGQPSNPYQMPAPYSSGLPVAENHRRPYVDFGLAIKLFFKNYAVFRGRASRSEYWWTVLFNFIIAVAIQALMPILQGVGLMSAITSNSTTEFSAMSTSGVIFTMLPLAWLLAIIIPCLALTVRRLHDVNHSGWWVMAPTLCGIVSAIMMILAFVSAAANDGKPSMALLTIGIVLFVAIFVVNIILLIFVISDSHPEAWKKYDKEPLPVTE,failed
2,MTEPPPTPDRHPDAVESAAPGGYLEPVRAAGTVLWRDTGRGREIALVHRPRYNDWTLPKGKLDEGEHVLVAAVRETVEETGVTPRLGRRLATQRYWKSGWPKQVDWWAATPAPGTTAQFTPTAEVDAVEWLPAAEARARLTYPSDVRVLDDFLHGPAQTVPLVLLRHASAGNKNEWHDYDLLRPLDEAGRAHARAVADILAVFGPLRVVSSTAARCLETVVPYAAAHGVEIRTEHTFTVGVLRSGAQAYDPQAARQTMRALVEERQPTLVCTHGELVADLMAEAAAQTGAPARSRWALRKGAFWVVHRDAKDGSLVAVEHHGLPG,failed
3,MTEPTHKKQFSLRTAVMLPFIAVLLVTLSIVFYTQNNSYEKLVGDVSEKVLASYTQNTHADLNIFLNAPNFAVKSMVNQIQRYQMYHPNDTKQLQQFLKDSLEGIYTGLEQMDVLSFGGEKKEYIGFRREPNASLSLMLQDKRTNDDLIIYRGSEMSDNIRTVIANYDPRSRPWYKPAATTFKPSWSKIYTNADEKKEITISTMHPVFYDEDFIGVFAADVKLDSFNKFLSQETKHTKGVIYLIDDQQRLIAHSSVGSVLSIGTQNSPVGSRLFAVESCDETIQQSATYIKNNQLINNKNNDAEVFSFYYKGERYFSQITPYIDGNNLNWYIVISISESDLLGHLQEEQRRGLFFGIVLAAIGLIVGVYLVTQVTKPIFTTANAARNIASGNWNNNVEAQGSIYETTLLMNAFNDMTNKLQSSFDAMRQQITFDSLTQVLSRQGLIEQCRIMLDKKEHYEQGLLVIGINNFRDINDSFGILEGDQLLKNISDRLQCSFAHDNIAIARVGGDEFALFFSKLDDVEQLKQYARDMEGCFMTPFRVASNNSLLSISTGLVYGDLSCDSMTLWLRNASIALGQAKKNNLNMSLYTPEMAEASLHKANMTAELSLAIKNKELVPFYQPIIDIKSGKTIGAEALIRWLSPQRGMVSPLDFIPLAEENGMIIPMGSQVLTQACLDTVERIDQGLWPADFHMHVNLSVCQLTQNNFLDELKAVLHNTSMAPENLTLEITESRLVNHDNSTINTMQKIRDLGVQIAIDDFGTGYSSLAYIHKLPFDVLKVDRSFIKDLTAENIDSSIAAAVCNMTQGFDITLVAEGIETQEQAKLLASLNYHHAQGFLYSRPIPLEDWPTE,failed
4,MTERPSLSPREARDRYLAHRQTDAADASIKSFRYRLKHFVEWAEERDITAMRELTGWKLDEYETFRRGSDVSPATLNGEMQTLKNWLEYLARIDVVDEDLPEKVHVPTIPDGEESNDEMLEPEAAKKLLRAMRSDPTHYGTVKHALLELLWFTGCRVGAARSLDLRDYHSGERFVTFHHREGTPLKNDSDGERAVGLPEAVCEVLDYYIEHHRESSHDDHGRKPLFTTTQGRASENTARVWTYLATQPCLHGPCPHGKERETCSYLHIHSASKCPSSLSPHRIRTGSITWQRDCGLPAEVVSERVNATLEVIEKHYDQATKRQRLEERRRPYINNLELDLEADS,failed
5,MTESATASRSWHLQATIRRLVLTAFVAGQTGLASWFLLQVLPYHGGNVVEWLIVAVFAVLYLWIAFGFWIAVYGFLLRLLGGDRASLLKRHTPNELAATPLSKTAIVMPLYHEPVSWTLKGLKAIYLDLARSGRLDDFDFYILSDSQDPDVWLQEQQVWLKLVEELGAHGRLFYRRRRVNLNYKSGNVADFLRRWGSQYQYMVVLDADSLLAGDTIRTMVQVMNREPQVGILQTAPTIINARSAFARIQQFANRLYSPLFATGLAAIQMGDAAFWGHNAVIRVAPFMAHCGLPKLKGAGIWQGPIMSHDFVEAAFLGRAGYEVWLEPALGASYEESPPTLDDELARDQRWSKGNLQHAALMLFSPRLRLAHRFAFLNGIMAYASSPLWLLFLVLTTIAAVQLTIAPIDYFPDGRESPFPLWPEWRPTWAITLVVSTMALLFLPKFLAIVDVVAHRTLSGFGGFFRLLCSVLLEIVVSVLLAPIRMLAHSHSVVSALLNVRLSWAGQNRTEETGWREAAVRHLPGLIIGSAWSAFAWTLDPMFFLWSLPVSIPLALAAPTTVWLSRSSSGESLSRRGLLLTPEERTRMPLLDDARGFREEAESEVALTPVEQAVLIPAVNRLHRQLAGRGAKGLKKEVIEGELDACVSRGYRGIEKGRLSLLLEDPQALTALHRRAWSAPSDSFWGQRVRNLVLHAQGLQDL,failed
6,MTEVDPRFEAWLSLETGIDAPSLGANALERAVLERARAMLAESSPRRPAVADAAALDAYWLRLNTWPEERQALIEALVVPETWFFRDREAFAELARLAGERLVREPARVLRILSVACSTGEEPYSAAMALLDAGIGPARFAIDAIDISGRAIDQAEHALYGRNAFRGYPLTFRDRYFSEVADGWQLNERVRRRVRFTQGNLFDETMDGEARYDFIFCRNALTYFHRDAQDHAIRRLDAQLADGGVIFVGPAETGPMMRHAMTPARSPLAFAFVRTPPAAKVPARAAPSQQQAPRPAVTGSPTVKPAAPEAASLAVRGGGAALPEHSAAVPVSLSTPLSVPPLRKVLPDLDDARQLTDAGRFDEAEYIIQDIVSLSAPEADTFYLLGVIAHARGRYADAGDFYRKTLYLDPEHYEALTHLAAVLDASGDAVGARQLMLRAQRAMARRDPAHPDAPNRPRGAPGLRRS,failed
7,MTEVYDLEITTNATDFPMEKKYPAGMSLNDLKKKLELVVGTTVDSMRIQLFDGDDQLKGELTDGAKSLKDLGVRDGYRIHAVDVTGGNEDFKDESMVEKYEMSDDTYGKRTDSVRAWKKKMQEEQGSAAPMENESDKLNEEAAKNIMVGNRCEVTVGAQMARRGEVAYVGATKFKEGVWVGVKYDEPVGKNDGSVAGVRYFDCDPKYGGFVRPVDVKVGDFPELSIDEI,not failed
8,MTFEIAFVLLSLLGMVIALILDKMRPGMILFSVVVLFLCAGILTPKEMLEGFSNKGMITVALLFLVSEGIRQSGALGQVVKKLLPQKRTTVFRAQLRLLPAVAFISAFLNNTPVVVIFAPIIKRWARTVHLPATKFLIPLSYVTILGGICTLIGTSTNLVVHGMILESGHEGFTMFELGKVGIFIAIAGIIYLFAFSKKLLPDARPDTAVPDEEVEEGDKLHRVEAVLGARFPGINKTLGEFNFKRHYGAEVKEIKKRNGQRFINNLEEVILREGDTLVVMADDTFIPTWGESSVFVLLANGNDNEPIPGKGKRWFALILLILMIAGATIGELPVVKEMFPDMKLDMFFFVSVTTIIMAWTKIFPARKYTKYISWDILITIACAFAISKAMVNSGVADKVAGFIIGMSHDYGPHVLLAVLFIITNLFTELITNNAAAALAFPLALSLSVQLGVDPTPFFVVICMAASASFSTPIGYQTNLIVQGIGNYKFMDFVRIGLPLNLITFLISIFLIPLIWPF,failed
9,MTFEIVFVLLSLLGMMAALIADKMRPGMVLFSVVVLFLCVGILTPKEMLEGFSNKGMITVALLFLVSEGIRQSGTLGQVIKKLLPQGKTTVFKAQLRILPSVAFISAFLNNTPVVVIFAPIIKHWAKSVKLPATKFLIPLSYVTILGGICTLIGTSTNLVVHGMILEAGYEGFTMFELGKVGIFIAIAGIIYLFIFSKRLLPDARPDTAVPDEEVEEGEKLHRVEAVLGARFPGINKKLSDFNFQRHYGAEVKEIKTRNGQRYVDHLEDVVLREGDTLVVMADDTFIPTWGESSVFVLLTNGNDPDTSGKKKRWLALILLVLMIVGATVGELPATKEMFPDIKLDMFFFVCITTIIMAWTNIFPARKYTKYISWDILITIACAFAISKAMVNSGVADCVAGFIIGLSDDYGPHVLLAILFVITNLFTELITNNAAAALAFPLALSISAQLGVSPTPFFVVICMAASASFSTPIGYQTNLIVQGIGNYKFTDFVRIGLPLNIITFLISVILIPLIWNF,not failed
10,MTFFTNYTNLALIAILLVSGGLLAWPALRRGRGGLSAAEATQLINRRNAVVIDLRAATDFAAGHLPSARQVAAGEIGAKIAQVAKNKSTPVLLVCQNGQQSQKAAREVQAAGYAEVHVLEGGVAAWQQAGMPVVKQGVAK,failed
11,MTFKQVADDWLKQYANDVKVSSVRAREKAIQHAIERFNTKPIQTIKKHDYQRFVDDISAQYSKNYVDSIVASTNMIFKYAYDTRLIKAMPSEGIKRPKKKVSVELEHHHHHH,not failed
12,MTFLSQLSTHADKAFLRRLFAIALPITLQSIMFSSRSLVDVLMLGQLGEAEIAAVGVAARATFVTTIMLVGVTTGGALLTAQYWGAGDKIGVRQSTSLTWMIAMVFAALAVCLFVFFPQPIMGLTTDSQEVIELGSSYLVISSASMFAVACVASMAVGLRAMHQPGLSTFFSGIGILSNVFLNWVLIFGHLGFPALGITGAAIATVISGAIEVGCLFGYLWLKKHIIAFGWGDIRASLVLDKITRFLSLSLPTTFNFLAWAGGLFAYHAIMGQAGVQGLAALSVMTPVESIALAMMIGLSNAAAVLVGNQLGAKNFEPVYYQAWATVILNVLIAFGVAVLLFFTNQLILDAFSALSAETRHLAEQFMVILALGVILRSVPMMVIVGVLRAGGDVKFCLYQDVFAQWIIGIPLAAFAAIYLGWEPQWVYLLFLTEEVVKWCICLPRMKSKKWMKNLIEK,not failed
13,MTFRESVPFIVAIAATIPGILLRVVHPDISPLLMASLTGLAILGASFMLMWACEVAQMDIPQTLALAVVALIAVLPEYAVDMYFTWMAGQHPESNYAHYAIANMTGANRLLIGIGWSAIAILYALRFRKAVQLEEERRSELLFLALATAYALVIPLKGTLEWYDGVILVSLYVWYIRIASKRPCTDCEVEGPAEALAHLPRNTRRLTTLGLFLFAAGVILCDAELFSESLVASGKVLGINEFLLVQWLAPIASEAPEFIVAIMFATRGQASLALGSLISSKLNQWTLLVGMIPGVFAVSSGSINPPMPMDDHQMHELLLTAAQSLFAVVLLARMRLGLRGALVLLALFIGQFAAPLYEPYVENLLGIPHMPDGLHIVYSGLYIALALGMMLYRPGRLLQLREGLKV,failed
14,MTFRGPSPPRFGHSMDLPAYAIEAEGLYKTYAGTKTSPEKRALNGIDLKIPRGSIFGLLGPNGAGKSTFINILAGLVRKSSGTVRIWGRDIDQRPRDARAAIGVVPQELAADVFFTPRESLEVQAGFYGVPKSERRTDELLNALGLGDKAGAYVRQLSGGMKRRLMVAKAMVHQPPVLILDEPTAGVDVELRRQLWQYVTSLNELGVTIVLTTHYLEEAQELCDEIAIINRGEVVACEPTAKLLSRMDSRNVVVTPESPVTAAPVLEGFDTKLRSGGAFSVSYRTGQSSVEQVLAAVRASGLHIKDIATEDPDLEDVFVALTYGDPNAADPTKDLEHHHHHH,failed
15,MTFSSKLKSFCSRYFSSHEKDKYKALMKQKLLNPLSSSSPNYDEMIQENFKPHWIIGIDPNLSGALAVLKFDDKGSCSAQVNPY,failed
16,MTFVLNTFGRLQLVDGQGSLVAFPEKGLLLLVYLLTTGEGSADRTSLARFLWGDADRDVALSTLRKLISRIKARQTELGINILSSQGNMVSLDRESLSSDLLLSETDEAVASFSLLKHLVKLLNQPFLGPVHCHSREFQHWLAEREKSHIDLLANTLKAVSQRAQSRTESELLRKAAIILFRTEPKDPDTLQLLIEIFKAEEEVESLRNHFEQRRISISRGIAVRTASDGGDTKPVLPALAPSREKHATAVSLEPEDISIAIPRLVLLPPRNQSIHPQAGFLAASLVEDITIGFCAFNSLQVIAPYSAVQIGHHMETQKAFFERHHVNYILDTRISNAGDDVTLFAQLIFFDQNQIVWAERFSLDHRDLVKDRRTVSRRIALSISSEIERHEALREDLNPAAYHRYLVGRRHLARLTLPNLRRARKEMKAALSVSPDFAPALSSMARTYSKEWLLTARGDIDLLKTAETLATQATETRPDFADGYREFGVAKLLQGAFDQSAEAMEVAESLAPHYADVIADYADTLVHCSLPAIALRKIERAIELNPLSPDTYFWTAAGANYALGEFEASLDYIGQMADASLADRLAAANWAMLGHQDKARTFVRRFREVNPDFDVDKWLSAVPSKEQWHKDLYREGLKKAGF,failed
